# In publication PMC5599116:
# Biological target: recombinant human CD62L (L-selectin) full extracellular region, native 1 signal sequence construct (human)
# Test: SPR
substance,measurement,value
mucin from porcine stomach type II (PSM-II) (natural protein),Kd,55 µM
